{"source": "patent US20120100582A1", "about": "(DSM IP ASSETS B V, published 2012)", "data": [{"biological_target": "the molecule itself", "experiment": "blue native gel electrophoresis, self-association (homotrimer)", "procedure": "Blue native gel electrophoresis (BN-PAGE) of bacterial lysates containing APLE was performed according to the method described by Reisinger and Eichacker (2006), “Analysis of membrane protein complexes by blue native PAGE”, Proteomics 6 Suppl 2, 6-15, with the following modifications. Aliquots containing 200 μg of soluble proteins were diluted with 10 mM Tris/HCl pH 7.4 to a final volume of 95 μl. Five μl of loading buffer was added to the sample before applying them on an 8-16% linear gradient gel. Gradient gels (16×20 cm) were created with the help of a Bio-Rad Gradient Former model 485 (Bio-Rad Laboratories, Vienna, Austria). Electrophoresis was performed at a constant current of 24 mA per gel at 4° C. After electrophoresis, gels were incubated in 0.1 M potassium phosphate buffer, pH 7.0, for 20 min at room temperature. For the in-gel-detection of esterase activity, the substrate fluorescein diacetate (FDA) was dissolved in acetone [4 mg/ml] and applied on a Biodyne® A membrane ([…], 16×20 cm) (Pall Life Science, Michigan, USA). After evaporation of acetone, the membrane was brought in close contact with the gel which was placed on a glass plate. […]\nEsterase activity was visualized herein through staining with fluorescein resulting from hydrolysis of fluorescein diacetate (FDA). […] Multiple bands were excised and analyzed on an SDS-PAGE gel. […]", "values": [{"protein": "APLE wild-type (enzyme, Homotrimer on native gel; also called pig liver esterase) GQPASPPVVDTAQGRVLGKYVSLEGLAQPVAVFLGVPFAKPPLGSLRFAPPQPAEPWSFVKNTTSYPPMCCQEPIGGQMLSDLFTNRKERLIPEFSEDCLYLNIYTPADLTKRGRLPVMVWIHGGGLVVGGASTYDGLALAAHENVVVVAIQYRLGIWGFFSTGDEHSRGNWGHLDQVAALHWVQENIANFGGDPGSVTIFGESAGGESVSVLVLSPLAKNLFHRAISESGVAFTAGLVRKDMKAAAKQIAVLAGCKTTTSAVFVHCLRQKSEDELLDLTLKMKFFALDLHGDPRESHPFLTTVVDGVLLPKMPEEILAEKDFNTVPYIVGINKQEFGWLLPTMMGFPLSEGKLDQKTATSLLWKSYPIANIPEELTPVATDKYLGGTDDPVKKKDLFLDLMGDVVFGVPSVTVARQHRDAGAPTYMYEFQYRPSFSSDKKPKTVIGDHGDEIFSVFGFPLLKGDAPEEEVSLSKTVMKFWANFARSGNPNGEGLPHWPMYDQEEGYLQIGVNTQAAKRLKGEEVAFWNDLLSKEAAKKPPKIKHAEL", "binding result": "binds"}, {"protein": "γPLE wild-type (enzyme, Tested in E. coli cleared lysate; Homotrimer; also called gamma-PLE) GQPASPPVVDTAQGRVLGKYVSLEGLAQPVAVFLGVPFAKPPLGSLRFAPPQPAEPWSFVKNTTSYPPMCCQDPVVEQMTSDLFTNGKERLTLEFSEDCLYLNIYTPADLTKRGRLPVMVWIHGGGLVLGGAPMYDGVVLAAHENVVVVAIQYRLGIWGFFSTGDEHSRGNWGHLDQVAALHWVQENIANFGGDPGSVTIFGESAGGESVSVLVLSPLAKNLFHRAISESGVALTVALVRKDMKAAAKQIAVLAGCKTTTSAVFVHCLRQKSEDELLDLTLKMKFLTLDFHGDQRESHPFLPTVVDGVLLPKMPEEILAEKDFNTVPYIVGINKQEFGWLLPTMMGFPLSEGKLDQKTATSLLWKSYPIANIPEELTPVATDKYLGGTDDPVKKKDLFLDLMGDVVFGVPSVTVARQHRDAGAPTYMYEFQYRPSFSSDKKPKTVIGDHGDEIFSVFGFPLLKGDAPEEEVSLSKTVMKFWANFARSGNPNGEGLPHWPMYDQEEGYLQIGVNTQAAKRLKGEEVAFWNDLLSKEAAKKPPKIKHAEL", "binding result": "binds"}]}, {"biological_target": "the molecule itself", "experiment": "blue native gel electrophoresis, self-association", "procedure": "Blue native gel electrophoresis (BN-PAGE) of bacterial lysates containing APLE was performed according to the method described by Reisinger and Eichacker (2006), “Analysis of membrane protein complexes by blue native PAGE”, Proteomics 6 Suppl 2, 6-15, with the following modifications. Aliquots containing 200 μg of soluble proteins were diluted with 10 mM Tris/HCl pH 7.4 to a final volume of 95 μl. Five μl of loading buffer was added to the sample before applying them on an 8-16% linear gradient gel. Gradient gels (16×20 cm) were created with the help of a Bio-Rad Gradient Former model 485 (Bio-Rad Laboratories, Vienna, Austria). Electrophoresis was performed at a constant current of 24 mA per gel at 4° C. After electrophoresis, gels were incubated in 0.1 M potassium phosphate buffer, pH 7.0, for 20 min at room temperature. For the in-gel-detection of esterase activity, the substrate fluorescein diacetate (FDA) was dissolved in acetone [4 mg/ml] and applied on a Biodyne® A membrane ([…], 16×20 cm) (Pall Life Science, Michigan, USA). After evaporation of acetone, the membrane was brought in close contact with the gel which was placed on a glass plate. The gel-membrane sandwich was incubated at 37° C. for 30 min before detection of fluorescent bands.\nEsterase activity was visualized herein through staining with fluorescein resulting from hydrolysis of fluorescein diacetate (FDA). All 7 wild-type enzymes are trimers of about the same height on the native gel, whereas the V263D mutants show bands on the lower third of the gel. Multiple bands were excised and analyzed on an SDS-PAGE gel. Multiple bands result in one clear band at the size of about 58 kDa (data not shown). It is assumed that these bands result from different conformations of the same monomer.", "values": [{"protein": "PICE with V263D mutation (enzyme, Monomeric mutant; also called PICE-V263D) GQPASPPVVDTAQGRVLGKYVSLEGLAQPVAVFLGVPFAKPPLGSLRFAPPQPAEPWSFVKNTTSYPPMCCQDPVAGQMTSDLFTNGKERLIPEFSEDCLYLNIYTPADLTKRGRLPVMVWIHGGGLVVGGASTYDGLALAAHENVVVVAIQYRLGIWGFFSTGDEHSRGNWGHLDQVAALHWVQENIANFGGDTGSVTIFGESAGGESVSVLVLSPLAKNLFHRAISESGVALTAGLVRKDMKAAAKQIAVLAGCKTTTSADFVHCLRQKSEDELLDLTLKMKFLTLDLHGDPRESHPFLPTVVDGVLLPKMPEEILAEKDFNTVPYIVGINKQEFGWLLPTMMGFPLSEGKLDQKTATSLLWKSFPITNIPEELTPVATDKYLGGTDDPVKKKDLFLDLMGDVVFGVPSVTVARQHRDAGAPTYMYEFQYRPSFSSDKKPKTVIGDHGDEIFSVFGFPLLKGDAPEEEVSLSKTVMKFWANFARSGNPNGEGLPHWPMYDQEEGYLQIGVNTQAAKRLKGEEVAFWNDLLSKEAAKKPPKIKHAEL", "binding result": "no binding"}, {"protein": "PLE4 with V263D mutation (enzyme, Monomeric mutant; also called PLE4-V263D) GQPASPPVVDTAQGRVLGKYVSLEGLAQPVAVFLGVPFAKPPLGSLRFAPPQPAEPWSFVKNTTSYPPMCCQDPVAGQMTSDLFTNGKERLIPEFSEDCLYLNIYTPADLTKRGRLPVMVWIHGGGLVVGGASTYDGLALAAHENVVVVAIQYRLGIWGFFSTGDEHSRGNWGHLDQVAALHWVQENIANFGGDPGSVTIFGESAGGESVSVLVLSPLAKNLFHRAISESGVAFTAGLVRKDMKAAAKQIAVLAGCKTTTSADFVHCLRQKSEDELLDLTLKMKPLTLDLHGDPRESHPFLTTVVDGVLLPKMPEEILAEKDFNTVPYIVGINKQEFGWLLPTMMGFPLSEGKLDQKTATSLLWKSYPIANIPEELTPVATDKYLGGTDDPVKKKDLFLDLMGDVVFGVPSVTVARQHRDAGAPTYMYEFQYRPSFSSDKKPKTVIGDHGDEIFSVFGAPFLRGDAPEEEVSLSKTVMKFWANFARSGNPNGEGLPHWPMYDQEEGYLQIGVNTQAAKRLKGEEVAFWNDLLSKEAAKKPPKIKHAEL", "binding result": "no binding"}, {"protein": "PLE3 with V263D mutation (enzyme, Monomeric mutant; also called PLE3-V263D) GQPASPPVVDTAQGRVLGKYVSLEGLAQPVAVFLGVPFAKPPLGSLRFAPPQPAEPWSFVKNTTSYPPMCCQEPIGGQMLSDLFTNRKERLIPEFSEDCLYLNIYTPADLTKRGRLPVMVWIHGGGLVVGGASTYDGLALAAHENVVVVAIQYRLGIWGFFSTGDEHSRGNWGHLDQVAALHWVQENIANFGGDPGSVTIFGESAGGESVSVLVLSPLAKNLFHRAISESGVAFTAGLVRKDMKAAAKQIAVLAGCKTTTSADFVHCLRQKSEDELLDLTLKMKPLTLDLHGDPRESHPFLTTVVDGVLLPKMPEEILAEKDFNTVPYIVGINKQEFGWLLPTMMGFPLSEGKLDQKTATSLLWKSYPIANIPEELTPVATDKYLGGTDDPVKKKDLFLDLMGDVVFGVPSVTVARQHRDAGAPTYMYEFQYRPSFSSDKKPKTVIGDHGDEIFSVFGFPLLKGDAPEEEVSLSKTVMKFWANFARSGNPNGEGLPHWPMYDQEEGYLQIGVNTQAAKRLKGEEVAFWNDLLSKEAAKKPPKIKHAEL", "binding result": "no binding"}, {"protein": "PLE5 with V263D mutation (enzyme, Monomeric mutant; also called PLE5-V263D) GQPASPPVVDTAQGRVLGKYVSLEGLAQPVAVFLGVPFAKPPLGSLRFAPPQPAEPWSFVKNTTSYPPMCCQDPVAGQMTSDLFTNGKERLIPEFSEDCLYLNIYTPADLTKRGRLPVMVWIHGGGLVVGGASTYDGLALAAHENVVVVAIQYRLGIWGFFSTGDEHSRGNWGHLDQVAALHWVQENIANFGGDPGSVTIFGESAGGESVSVLVLSPLAKNLFHRAISESGVAFTAGLVRKDMKAAAKQIAVLAGCKTTTSADFVHCLRQKSEDELLDLTLKMKFFALDLHGDPRESHPFLTTVVDGVLLPKMPEEILAEKDFNTVPYIVGINKQEFGWLLPTMMGFPLSEGKLDQKTATSLLWKSYPIANIPEELTPVATDKYLGGTDDPVKKKDLFLDLMGDVVFGVPSVTVARQHRDAGAPTYMYEFQYRPSFSSDKKPKTVIGDHGDEIFSVFGAPFLRGDAPEEEVSLSKTVMKFWANFARSGNPNGEGLPHWPMYDQEEGYLQIGVNTQAAKRLKGEEVAFWNDLLSKEAAKKPPKIKHAEL", "binding result": "no binding"}, {"protein": "APLE with V263D mutation (enzyme, Monomeric mutant, tested in E. coli cleared lysate; also called APLE-V263D; mutant, monomeric APLE) GQPASPPVVDTAQGRVLGKYVSLEGLAQPVAVFLGVPFAKPPLGSLRFAPPQPAEPWSFVKNTTSYPPMCCQEPIGGQMLSDLFTNRKERLIPEFSEDCLYLNIYTPADLTKRGRLPVMVWIHGGGLVVGGASTYDGLALAAHENVVVVAIQYRLGIWGFFSTGDEHSRGNWGHLDQVAALHWVQENIANFGGDPGSVTIFGESAGGESVSVLVLSPLAKNLFHRAISESGVAFTAGLVRKDMKAAAKQIAVLAGCKTTTSADFVHCLRQKSEDELLDLTLKMKFFALDLHGDPRESHPFLTTVVDGVLLPKMPEEILAEKDFNTVPYIVGINKQEFGWLLPTMMGFPLSEGKLDQKTATSLLWKSYPIANIPEELTPVATDKYLGGTDDPVKKKDLFLDLMGDVVFGVPSVTVARQHRDAGAPTYMYEFQYRPSFSSDKKPKTVIGDHGDEIFSVFGFPLLKGDAPEEEVSLSKTVMKFWANFARSGNPNGEGLPHWPMYDQEEGYLQIGVNTQAAKRLKGEEVAFWNDLLSKEAAKKPPKIKHAEL", "binding result": "no binding"}, {"protein": "γ-PLE with V263D mutation (enzyme, Monomeric mutant; also called γPLE-V263D) GQPASPPVVDTAQGRVLGKYVSLEGLAQPVAVFLGVPFAKPPLGSLRFAPPQPAEPWSFVKNTTSYPPMCCQDPVVEQMTSDLFTNGKERLTLEFSEDCLYLNIYTPADLTKRGRLPVMVWIHGGGLVLGGAPMYDGVVLAAHENVVVVAIQYRLGIWGFFSTGDEHSRGNWGHLDQVAALHWVQENIANFGGDPGSVTIFGESAGGESVSVLVLSPLAKNLFHRAISESGVALTVALVRKDMKAAAKQIAVLAGCKTTTSADFVHCLRQKSEDELLDLTLKMKFLTLDFHGDQRESHPFLPTVVDGVLLPKMPEEILAEKDFNTVPYIVGINKQEFGWLLPTMMGFPLSEGKLDQKTATSLLWKSYPIANIPEELTPVATDKYLGGTDDPVKKKDLFLDLMGDVVFGVPSVTVARQHRDAGAPTYMYEFQYRPSFSSDKKPKTVIGDHGDEIFSVFGFPLLKGDAPEEEVSLSKTVMKFWANFARSGNPNGEGLPHWPMYDQEEGYLQIGVNTQAAKRLKGEEVAFWNDLLSKEAAKKPPKIKHAEL", "binding result": "no binding"}, {"protein": "PLE2 with V263D mutation (enzyme, Monomeric mutant; also called PLE2-V263D) GQPASPPVVDTAQGRVLGKYVSLEGLAQPVAVFLGVPFAKPPLGSLRFAPPQPAEPWSFVKNTTSYPPMCCQDPVVEQMTSDLFTNGKERLTLEFSEDCLYLNIYTPADLTKRGRLPVMVWIHGGGLVLGGAPMYDGVVLAAHENVVVVAIQYRLGIWGFFSTGDEHSRGNWGHLDQVAALHWVQENIANFGGDPGSVTIFGESAGGESVSVLVLSPLAKNLFHRAISESGVALTVALVRKDMKAAAKQIAVLAGCKTTTSADFVHCLRQKSEDELLDLTLKMKFLTLDFHGDQRESHPFLPTVVDGVLLPKMPEEILAEKDFNTVPYIVGINKQEFGWLLPTMMGFPLSEGKLDQKTATSLLWKSYPIANIPEELTPVATDKYLGGTDDPVKKKDLFLDLMGDVVFGVPSVTVARQHRDAGAPTYMYEFQYRPSFSSDKKPKTVIGDHGDEIFSVFGAPFLRGDAPEEEVSLSKTVMKFWANFARSGNPNGEGLPHWPMYDQEEGYLQIGVNTQAAKRLKGEEVAFWNDLLSKEAAKKPPKIKHAEL", "binding result": "no binding"}]}]}
